For data set [1] the following is noted: LigDFEG gene cluster, FIG. 2B; cited from earlier work.
Data set [2] in a line: in vitro biochemical assay for beta-etherase activity on fluorescent substrate MUAV (clarified E. coli cell extracts). Conditions: 0.1 mM MUAV substrate; E. coli cell extracts expressing the protein. The source says: The model substrate synthesis 150 for use in the biochemical screening for selective activity can be outsourced through a contract research organization (CRO). The enzyme discovery effort can initially be focused on identifying potential beta-etherase candidate genes identified through bioinformatic methods. […] The fluorescent substrate α-O-(β-methylumbelliferyl)acetovanillone (MUAV), for example, can be used in in vitro assays to identify beta-etherase function (Acme Biosciences, Mt. View, Calif.). The formation of 4 methylumbelliferone (4MU) upon hydrolysis of the aryl ether bond can be monitored by fluorescence, for example, at λex=365 nm and λem=450 nm (or 460 nm).
The enzyme screening 155 is done to identify novel etherases 160. […] Expression of the beta-etherase genes can be done in 5 ml or 25 ml samples of the recombinant E. coli strains in LB medium using induction with IPTG. Following induction, and cell harvest, cell pellets can be lysed using the BPER (Invitrogen) cell lysis system. […] The formation of 4 methylumbelliferone (4MU) upon hydrolysis of the aryl ether bond in MUAV can be monitored by fluorescence at λex=365 nm and λem=460 nm, and can provide quantitative measurement of beta-etherase function. Cell extracts of E. coli transformed with the S. paucimobilis ligE and ligF genes can be the assay positive controls. Test or unknown samples can include, for example, E. coli strains expressing putative beta-etherase genes from N. aromaticovorans.
This example describes a method for gene expression in E. coli, as well as beta-etherase biochemical assays. Expression of known and putative beta-etherase genes was performed using 5 ml cultures of the recombinant E. coli strains described herein in Luria Broth medium by induction of gene expression using isopropylthiogalactoside (IPTG) to a final concentration of 0.1 mM. Following induction, and cell harvest, the cells were disrupted using either sonication or the BPER (Invitrogen) cell lysis system.
In vitro reactions were performed in a total volume of 200 ul and contained: 25 mM TrisHCl pH 7.5; 0.5 mM dithiothreitol; 1 mM glutathione; 0.05 mM or 0.1 mM MUAV; 10 ul of clarified cell extract used to initiate the reactions. Following incubation for 2.5 hours at room temperature, a 50 ul sample of the reactions was terminated using 150 uL of 300 mM glycine/NaOH buffer pH 9. The formation of 4 methylumbelliferone (4MU) upon hydrolysis of the aryl ether bond was monitored by the increase in fluorescence at λex=360 nm and λem=450 nm using a Spectramax UV/visible/fluorescent spectrophotometer.
The total protein concentrations of the cell lysates were determined using the BCA reagent system for protein quantification (Pierce).
Induction might be also performed using IPTG concentrations in the range of 0.01-1 mM. Cell disruption might be also performed using toluene permeabilization, French pressure techniques, or using multiple freeze/thaw cycles in conjunction with lysozyme. Assay conditions might be varied to include TrisHCl at 10-150 mM concentrations and in the pH range of 6.5-8.5; 0-2 mM dithiothreitol; 0.05-2 mM glutathione; 0.01-5 mM MUAV substrate; 22-42° C. reaction temperatures. The biochemical assay might be performed as a fixed time point assay with reaction times ranging from 5 minutes-12 hours, or performed continuously without quenching with glycine/NaOH buffer to extract enzyme kinetic parameters.

B1: ligE: S. paucimobilis beta-etherase, positive control, GenBank BAA02032.1, SEQ ID NO:1 (protein)
chain: MARNNTITLYDLQLESGCTISPYVWRTKYALKHKGFDIDIVPGGFTGILERTGGRSERVPVIVDDGEWVLDSWVIAEYLDEKYPDRPMLFEGPTQKNLMKFLDNWLWSTAVGPWFRCYILDYHDLSLPQDRDYVRWSREQWFLGGQRLEDVQAGREDRLPLVPPTLEPFRRILAETKWLGGDQPNFADYSALAVFLWTASVARTPPLTEDDPLRDWLDRGFDLFDGLGRHPGMNPLFGLKLREGDPEPFVRQTGPAGAGGQALNKGPQTTKMPPRVAEKAD
In the case of B1, the “enzyme activity shown by gene product” value in data set [1] was “β-etherase activity”. In addition, in data set [2], the “total activity (beta-etherase)” value amounted to 7 rfu/ug.

B2: LigF: S. paucimobilis beta-etherase, positive control, GenBank BAA02031.1, SEQ ID NO:513 (protein)
chain: MTLKLYSFGPGANSLKPLATLYEKGLEFEQVFVDPSKFEQHSDWFKKINPRGQVPALWHDGKVVTESTVICEYLEDVFPESGNSLRPADPFKRAEMRVWTKWVDEYFCWCVSTIGWAFGIKAIAQKMSDEEFEEHINKNVPIPEQQLKWRRARNGFPQEMLDEEFRKVGVSVARLEETLSKQDYLVDTGYSLADICNFAIANGLQRPGGFFGDYVNQEKTPGLCAWLDRINARPAIKEMFEKSKREDLLKRQNEKVA
Regarding B2, the “enzyme activity shown by gene product” value in data set [1] was “β-etherase activity”. Further, in data set [2], the “total activity (beta-etherase)” value was 558 rfu/ug.

These data come from US20120196335A1, “LIGF-TYPE TRANSFORMANTS FOR BIOCONVERSION OF LIGNIN-DERIVED COMPOUNDS” (priority 2010, published 2012).
